Experimental data from US12685781B2, “Anti-HER3 antibody-drug conjugate” (DAIICHI SANKYO COMPANY, LIMITED, priority 2014, dated 2026).

Columns and labels:
HER3 [1] = biological target: T1, HER3 (Homo sapiens, UniProt P21860); experiment: Inhibition of HER3 signal, Western blotting in A549 cells; format: cell-based
Procedure: A human lung cancer cell line A549 (CRS-300114) from Cell Lines Service was dissociated by trypsin treatment, and 50,000 living cells were inoculated to 3 mL of DMEM/F12 (Invitrogen Corp., #21331-020)+10% FBS (Invitrogen Corp., #10270-106) in each of 6 wells. After culturing the cells for 3 days, the medium was replaced with 2 mL of a fresh medium.
The antibody or each antibody-drug conjugate was added directly to 2 mL of a medium in each of the 6 wells such that the final concentration was 10 ug/mL (20 uL of a stock solution of 1 ug/uL antibody or antibody-drug conjugate was added).
U1-59, the antibody-drug conjugate (3), the antibody-drug conjugate (10), or the antibody-drug conjugate (13) was used as the antibody or the antibody-drug conjugate. An untreated group was used as a control.
The cells were cultured for 2 days, washed once with PBS, and treated with 100 uL of an ice-cooled buffer (50 mM 4-(2-hydroxyethyl)-1-piperazineethanesulfonic acid (HEPES), pH 7.5, 150 mM sodium chloride, 1 mM ethylenediaminetetraacetic acid (EDTA), 12.5% glycerin, 1% Triton X-100, and 10 mM sodium pyrophosphate tetrabasic supplemented with proteinase inhibitors (Roche Diagnostics, Inc., #11697 498 001), 10 mM sodium fluoride, 1 mM sodium vanadate, 1 mM phenyl-methane-sulfonyl-fluoride (PMSF), and 10 ug/mL aprotinin (Sigma-Aldrich Co. LLC, A1153)) for 30 minutes at 4 C for lysis. […]

HER3 [2] = biological target: T1, HER3; experiment: HER3 binding affinity by flow cytometry on HCC1569 cells; parameters: host or cells: HCC1569 (human breast cancer cell line); conditions: read-out: Kd (nM), equilibrium binding affinity
Procedure: A human breast cancer cell line HCC1569 (CRL-2330) from ATCC was cultured in an RPMI1640 medium (purchased from Invitrogen Corp., containing 10% […] (manufactured by Invitrogen Corp.) and 2 mM L-glutamine (manufactured by Invitrogen Corp.)). The cells were dissociated from the culture plate using ACCUTASE® SOLUTION (Millipore Corp., SCR005) or EDTA (5 mM, phosphate buffered saline (PBS, 137 mM sodium chloride, 2.7 mM potassium chloride, 1.47 mM potassium dihydrogen phosphate, and 10.5 mM disodium hydrogen phosphate)), and the number of living cells was measured by trypan blue treatment. The same numbers of cells suspended in a fluorescence-activated cell sorting (FACS) buffer (PBS containing 3% FBS and 0.004% sodium azide) were inoculated to 96-well U-bottom plates, and the cells were precipitated by centrifugation and suspended in 100 uL of an ice-cooled antibody or antibody-drug conjugate dilution or FACS buffer. […]
U1-59, the antibody-drug conjugate (3), the antibody-drug conjugate (10), or the antibody-drug conjugate (13) was evaluated as the antibody or the antibody-drug conjugates. […]
Fluorescence signals from living cells were evaluated using Accuri C6 Flow cytometer (BD Biosciences/Accuri® Cytometers Inc., serial number 1424) and CFlow software (CFlow sampler Version 1.0.264.13). […]

Substance: U1-59: anti-HER3 human antibody; heavy and light chain variable regions SEQ ID NOs: 70 and 72; produced per WO 2007/077028
- HER3 phosphorylation compared with untreated cells (HER3 [1]; A549, 10 ug/mL, 2 days): reduced
- HER3 expression compared with untreated cells (HER3 [1]; A549, 2 days): reduction in HER3 expression was also observed
- Kd (HER3 [2]): 1.6 nM
